Data published in patent publication US20030165997, “Zinc finger domain libraries” (published 2003).

What was measured:
ZFP 15 VSNV-CSNR1-RSNR = ZFP 15 VSNV-CSNR1-RSNR (synthetic); assay: cell_activity; HEK293 luciferase repression; settings: tags: HA tag and NLS (P3 vector)
Description: (§1) The in vivo activity assay for a particular three-finger protein was carried out as follows. HEK 293 cells were transfected with four plasmids: 14 ng of a plasmid expressing the particular three-finger protein; 14 ng of the reporter plasmid described above; 70 ng of a plasmid that expresses GAL4-VP 16; and 1.4 ng of a plasmid that expresses Renillar luciferase. The GAL4-VP 16 activates transcription of the minimal synthetic promoter in the reporter so that the repression effected by a particular three-finger protein could be clearly detected and compared to other three-finger proteins. The plasmid expressing Renillar luciferase provides a control of transfection efficiency.
(§2) Lipofectamine (Gibco-BRL) was used for the transfection procedures. Cells were transfected at 30-50% confluency in wells of a 96 well plate. The cells were incubated for two days prior to harvesting for the luciferase assay. Then luciferase activities were measured using the Dual-Luciferase™ Reporter Assay System (Promega). The observed firefly luciferase activity was normalized using the observed level of Renilla luciferase. The extent of repression or “fold-repression” was calculated by dividing a value for normalized reporter expression in the absence of a zinc finger protein by a value for normalized reporter expression in the presence of the zinc finger protein.
(§3) A total of 153 three-finger chimeric proteins were constructed from both the “zinc finger protein-first” and the “target site-first” approaches. These proteins were tested using the transient cotransfection assay described in Example 68.

ZFP 2 CSNR1-RSHR-RDHT = ZFP 2 CSNR1-RSHR-RDHT (synthetic); assay: cell_activity; HEK293 luciferase repression; settings: tags: HA tag and NLS (P3 vector)
Description: as §1, §2, §3

ZFP 20 QSNR3-QSHR2-RSNR = ZFP 20 QSNR3-QSHR2-RSNR (synthetic); assay: cell_activity; HEK293 luciferase repression; settings: tags: HA tag and NLS (P3 vector)
Description: as §1, §2, §3

ZFP 18 RDER1-QSSR1-QSHT = ZFP 18 RDER1-QSSR1-QSHT (synthetic); assay: cell_activity; HEK293 luciferase repression; settings: tags: HA tag and NLS (P3 vector)
Description: as §1, §2, §3

[1] = target: T1, Zif268 zinc finger protein (three fingers) (UniProt P08046 SEQ:1-89); assay: EMSA; Zn2+, Mg2+, pH 7.7, RT; no yeast growth; 1.5-fold repression (Table 8)
[2] = target: T1, Zif268 zinc finger protein (three …); assay: EMSA; Zn2+, Mg2+, pH 7.7, RT; yeast growth ++; 5.9-fold repression (Table 8)
ZFP 7 RDHT-QSNV2-RSHR = ZFP 7 RDHT-QSNV2-RSHR (synthetic); assay: cell_activity; HEK293 luciferase repression; settings: tags: HA tag and NLS (P3 vector)
Description: as §1, §2, §3

ZFP 24 CSNR1-QSHT-RSNR = ZFP 24 CSNR1-QSHT-RSNR (synthetic); assay: cell_activity; HEK293 luciferase repression; settings: tags: HA tag and NLS (P3 vector)
Description: as §1, §2, §3

ZFP 33 QSNV2-RSHR-RDER1 = ZFP 33 QSNV2-RSHR-RDER1 (Homo sapiens); assay: cell_activity; HEK 293 luciferase; settings: tags: HA, NLS
Description: as §1, §2, §3

ZFP 4 RSHR-RDER1-RDER1 = ZFP 4 RSHR-RDER1-RDER1 (synthetic); assay: cell_activity; HEK293 luciferase repression; settings: tags: HA tag and NLS (P3 vector)
Description: as §1, §2, §3

[3] = target: T1, Zif268 zinc finger protein (three …); assay: EMSA; Zn2+, Mg2+, pH 7.7, RT; no yeast growth; 1.6-fold repression (Table 8)
ZFP 32 QSNV2-RSNR-RDHT = ZFP 32 QSNV2-RSNR-RDHT (Homo sapiens); assay: cell_activity; HEK 293 luciferase; settings: tags: HA, NLS
Description: as §1, §2, §3

ZFP 23 RDHT-RSNR-QSNR3 = ZFP 23 RDHT-RSNR-QSNR3 (synthetic); assay: cell_activity; HEK293 luciferase repression; settings: tags: HA tag and NLS (P3 vector)
Description: as §1, §2, §3

ZFP 8 RSNR-QSHR2-QSSR1 = ZFP 8 RSNR-QSHR2-QSSR1 (synthetic); assay: cell_activity; HEK293 luciferase repression; settings: tags: HA tag and NLS (P3 vector)
Description: as §1, §2, §3

ZFP 13 QSHR2-RDER1-RSNR = ZFP 13 QSHR2-RDER1-RSNR (synthetic); assay: cell_activity; HEK293 luciferase repression; settings: tags: HA tag and NLS (P3 vector)
Description: as §1, §2, §3

ZFP 29 QSNR3-RDHT-RSNR = ZFP 29 QSNR3-RDHT-RSNR (synthetic); assay: cell_activity; HEK293 luciferase repression; settings: tags: HA tag and NLS (P3 vector)
Description: as §1, §2, §3

[4] = target: T1, Zif268 zinc finger protein (three …); assay: EMSA; Zn2+, Mg2+, pH 7.7, RT; no yeast growth; 1.3-fold repression (Table 8)

Chain of ZFP 2 CSNR1-RSHR-RDHT (synthetic) (chain, as listed by the source): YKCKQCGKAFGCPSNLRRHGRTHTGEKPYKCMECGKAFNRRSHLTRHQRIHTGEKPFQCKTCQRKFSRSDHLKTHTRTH
Chain of ZFP 24 CSNR1-QSHT-RSNR (synthetic) (chain, as listed by the source): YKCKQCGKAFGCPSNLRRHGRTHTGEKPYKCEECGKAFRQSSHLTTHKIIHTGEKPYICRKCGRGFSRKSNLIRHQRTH
Chain of ZFP 32 QSNV2-RSNR-RDHT (Homo sapiens) (chain, as listed by the source): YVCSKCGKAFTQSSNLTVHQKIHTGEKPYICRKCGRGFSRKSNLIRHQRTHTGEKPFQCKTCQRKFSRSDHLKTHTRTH
Chain of ZFP 15 VSNV-CSNR1-RSNR (synthetic) (chain, as listed by the source): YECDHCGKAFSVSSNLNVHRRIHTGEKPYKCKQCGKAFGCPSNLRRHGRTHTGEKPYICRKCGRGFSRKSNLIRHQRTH
Chain of ZFP 4 RSHR-RDER1-RDER1 (synthetic) (chain, as listed by the source): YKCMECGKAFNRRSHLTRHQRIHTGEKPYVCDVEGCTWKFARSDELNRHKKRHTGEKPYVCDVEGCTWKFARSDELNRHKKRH
Chain of ZFP 29 QSNR3-RDHT-RSNR (synthetic) (chain, as listed by the source): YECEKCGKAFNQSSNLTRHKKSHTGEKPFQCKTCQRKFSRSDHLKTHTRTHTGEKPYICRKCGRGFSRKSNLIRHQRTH
Chain of ZFP 8 RSNR-QSHR2-QSSR1 (synthetic) (chain, as listed by the source): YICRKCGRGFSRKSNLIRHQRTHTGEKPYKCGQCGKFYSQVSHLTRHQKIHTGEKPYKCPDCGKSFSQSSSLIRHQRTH
Chain of ZFP 23 RDHT-RSNR-QSNR3 (synthetic) (chain, as listed by the source): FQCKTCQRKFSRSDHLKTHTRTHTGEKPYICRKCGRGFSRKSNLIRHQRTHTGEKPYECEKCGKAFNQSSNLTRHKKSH
Chain of ZFP 7 RDHT-QSNV2-RSHR (synthetic) (chain, as listed by the source): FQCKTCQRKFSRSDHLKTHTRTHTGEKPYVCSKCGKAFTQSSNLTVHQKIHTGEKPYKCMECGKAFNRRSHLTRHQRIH
Chain of ZFP 13 QSHR2-RDER1-RSNR (synthetic) (chain, as listed by the source): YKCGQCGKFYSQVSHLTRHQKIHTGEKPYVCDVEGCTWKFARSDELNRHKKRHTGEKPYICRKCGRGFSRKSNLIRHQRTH
Chain of ZFP 18 RDER1-QSSR1-QSHT (synthetic) (chain, as listed by the source): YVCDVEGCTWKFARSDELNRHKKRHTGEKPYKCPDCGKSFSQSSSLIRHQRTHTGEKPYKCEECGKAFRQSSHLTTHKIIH
Chain of ZFP 20 QSNR3-QSHR2-RSNR (synthetic) (chain, as listed by the source): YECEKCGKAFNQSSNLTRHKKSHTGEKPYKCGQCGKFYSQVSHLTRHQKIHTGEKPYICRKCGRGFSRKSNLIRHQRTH
Chain of ZFP 33 QSNV2-RSHR-RDER1 (Homo sapiens) (chain, as listed by the source): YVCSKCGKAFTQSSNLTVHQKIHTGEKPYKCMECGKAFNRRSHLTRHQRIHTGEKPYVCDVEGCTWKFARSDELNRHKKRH

B1: target 15 (dsDNA)
DNA 1: GAGGACAATG
DNA 2: CATTGTCCTC
activity (ZFP 15 VSNV-CSNR1-RSNR): 2.5 fold repression

B2: target 2 (dsDNA)
DNA 1: TGGGGGGACA
DNA 2: TGTCCCCCCA
activity (ZFP 2 CSNR1-RSHR-RDHT): 4.5 fold repression

B3: target 20 (dsDNA)
DNA 1: GAGGGAGAAG
DNA 2: CTTCTCCCTC
activity (ZFP 20 QSNR3-QSHR2-RSNR): 2.1 fold repression

B4: target 18 (dsDNA)
DNA 1: CGAGCAGCG
DNA 2: CGCTGCTCG
activity (ZFP 18 RDER1-QSSR1-QSHT): 2.2 fold repression

B5: GCTT probe (dsDNA)
DNA 1: CCGGGTCGTGCTTGGGCGGTACCG
DNA 2: TCGACGGTACCGCCCAAGCACGAC
Kd [1]: 2.1 nM

B6: GAGT probe (dsDNA)
DNA 1: CCGGGTCGGGAGTGGGCGGTACCG
DNA 2: TCGACGGTACCGCCCACTCCCGAC
Kd [2]: 0.17 nM

B7: target 7 (dsDNA)
DNA 1: GGGAAACGGG
DNA 2: CCCGTTTCCC
activity (ZFP 7 RDHT-QSNV2-RSHR): 3.6 fold repression

B8: target 24 (dsDNA)
DNA 1: GAGTGAGACC
DNA 2: GGTCTCACTC
activity (ZFP 24 CSNR1-QSHT-RSNR): 2.1 fold repression

B9: target 33 (dsDNA)
DNA 1: GTGGGGAAAA
DNA 2: TTTTCCCCAC
activity (ZFP 33 QSNV2-RSHR-RDER1): 1.9 fold repression

B10: target 4 (dsDNA)
DNA 1: GCGGCGGGGC
DNA 2: GCCCCGCCGC
activity (ZFP 4 RSHR-RDER1-RDER1): 3.8 fold repression

B11: GAGC probe (dsDNA)
DNA 1: CCGGGTCGCGAGCGGGCGGTACCG
DNA 2: TCGACGGTACCGCCCGCTCGCGAC
Kd [3]: 2.3 nM

B12: target 32 (dsDNA)
DNA 1: GGGGAGAAA
DNA 2: TTTCTCCCC
activity (ZFP 32 QSNV2-RSNR-RDHT): 1.9 fold repression

B13: target 23 (dsDNA)
DNA 1: GAAGAGAGGT
DNA 2: ACCTCTCTTC
activity (ZFP 23 RDHT-RSNR-QSNR3): 2.1 fold repression

B14: target 8 (dsDNA)
DNA 1: GTAGGAGAGT
DNA 2: ACTCTCCTAC
activity (ZFP 8 RSNR-QSHR2-QSSR1): 3.3 fold repression

B15: target 13 (dsDNA)
DNA 1: GAGGTGGGAG
DNA 2: CTCCCACCTC
activity (ZFP 13 QSHR2-RDER1-RSNR): 2.8 fold repression

B16: target 29 (dsDNA)
DNA 1: GAGTGGGAAA
DNA 2: TTTCCCACTC
activity (ZFP 29 QSNR3-RDHT-RSNR): 2 fold repression

B17: ACAT probe (dsDNA)
DNA 1: CCGGGTCGGACATGGGCGGTACCG
DNA 2: TCGACGGTACCGCCCATGTCCGAC
Kd [4]: 1.3 nM
